Legend:
[1] = biological target: disulfide-stabilized SF162 L1-SS-L2 gp120 (V59C & S109C) (HIV-1 strain SF162) (UniProt P19550); experiment: SPR BIAcore 3000, b12 amine-coupled on CM5, gp120 L1-SS-L2 as analyte, 25 C, 1:1 Langmuir fit
[2] = biological target: HIV-1 SF162 gp120 (wild type, unmodified) (HIV-1 strain SF162) (UniProt P19550); experiment: SPR BIAcore 3000, b12 amine-coupled on CM5, gp120 as analyte, 25 C, 1:1 Langmuir fit
[3] = biological target: disulfide-stabilized SF162 L1-SS-L2 gp120 (V59C & S109C) (HIV-1 strain SF162) (UniProt P19550); experiment: SPR BIAcore 3000, b12 immobilized; Kd compared with wild-type gp120

Which results are given for mAb b12 (antibody)?
Kd [1]: 304 nM; koff [1]: 0.00885 s⁻¹; kon [1]: 29100 M⁻¹ s⁻¹; Kd [2]: 44.8 nM; koff [2]: 0.00712 s⁻¹; kon [2]: 165000 M⁻¹ s⁻¹; fold difference in Kd against wild-type gp120 [3]: < 7 fold

From patent US20150183835A1
